Source: paper PMC12369479, “A monomer–dimer switch modulates the activity of plant adenosine kinase” (Journal of Experimental Botany, 2025)

How the values were obtained:
[1] = target: Arabidopsis thaliana adenosine kinase 2 (6×His-AtADK2) (Arabidopsis thaliana) (UniProt Q9LZG0); assay: SEC; gel permeation chromatography of 6×His-AtADK2 at 1.2 mg/ml (preliminary results, Supplementary Fig. S10)
[2] = target: Arabidopsis thaliana adenosine kinase 2 (6×His-AtADK2) (Arabidopsis thaliana) (UniProt Q9LZG0); assay: dynamic light scattering; AtADK2 at higher concentrations (5 mg/ml) (preliminary results)
[3] = target: Physcomitrella patens adenosine kinase 1 (PpADK1) (Physcomitrella patens) (UniProt O49923); assay: SEC; gel permeation chromatography of moss ADKs on Superdex 200 10/30 HR, 20 mM Tris-HCl pH 7.5, 100 mM NaCl; dimers from 0.01 mg/ml (0.25 µM), mainly dimeric above 0.3 mg/ml (7.7 µM); monomer to dimer
[4] = target: Physcomitrella patens adenosine kinase 1 (PpADK1) (Physcomitrella patens) (UniProt O49923); assay: AUC; sedimentation velocity of PpADK1 at a higher concentration (>0.3 mg/ml), 20 mM Tris-HCl pH 7.5, 150 mM NaCl, 10 mM MgCl2, 10 µM DTT, 1% glycerol, 25 °C, c(s) analysis; monomer to dimer
[5] = target: Physcomitrella patens adenosine kinase 1 (PpADK1) (Physcomitrella patens) (UniProt O49923)
[6] = target: Physcomitrella patens adenosine kinase 1 (PpADK1) (Physcomitrella patens) (UniProt O49923); assay: dynamic light scattering; hydrodynamic diameter, 20 mM Tris-HCl pH 7.5, 1 mM MgCl2, apoform or with 2 mM ATP, 22 °C
[7] = target: Physcomitrella patens adenosine kinase 1 (PpADK1) (Physcomitrella patens) (UniProt O49923); assay: SAXS; small-angle X-ray scattering, 50 mM Tris-HCl pH 7.5, three concentrations up to 5 mg/ml; Guinier analysis and Bayesian molecular weight estimate
[8] = target: Physcomitrella patens adenosine kinase 2 (PpADK2) (Physcomitrella patens); assay: SEC; gel permeation chromatography of moss ADKs on Superdex 200 10/30 HR, 20 mM Tris-HCl pH 7.5, 100 mM NaCl; dimers from 0.01 mg/ml (0.25 µM), mainly dimeric above 0.3 mg/ml (7.7 µM); monomer to dimer
[9] = target: Physcomitrella patens adenosine kinase 2 (PpADK2) (Physcomitrella patens)
[10] = target: Zea mays adenosine kinase 1 (ZmADK1) (Zea mays); assay: SEC; gel permeation chromatography of maize ADKs at higher concentrations (30 mg/ml), Supplementary Fig. S1
[11] = target: Zea mays adenosine kinase 2 (ZmADK2) (Zea mays); assay: as above
[12] = target: Zea mays adenosine kinase 3 (ZmADK3) (Zea mays); assay: as above

Arabidopsis thaliana adenosine kinase 2 (6×His-AtADK2) (from UniProt Q9LZG0 1-345) (enzyme)
stoichiometry N [1]: 2
stoichiometry N [2]: 2

Physcomitrella patens adenosine kinase 1 (PpADK1) (from UniProt O49923 1-343) (enzyme)
stoichiometry N [3]: 2
stoichiometry N [4]: 2
specific activity with 100 µM Ado (coupled reaction with PK and LDH, 30 °C) (nmol s^–1 mg^–1) [5]: 5.09
stoichiometry N [6]: 2
stoichiometry N [7]: 2

Physcomitrella patens adenosine kinase 2 (PpADK2) (enzyme)
stoichiometry N [8]: 2
specific activity with 100 µM Ado (coupled reaction with PK and LDH, 30 °C) (nmol s^–1 mg^–1) [9]: 4.7

Zea mays adenosine kinase 1 (ZmADK1) (enzyme)
stoichiometry N [10]: 2

Zea mays adenosine kinase 2 (ZmADK2) (enzyme)
stoichiometry N [11]: 2

Zea mays adenosine kinase 3 (ZmADK3) (enzyme)
stoichiometry N [12]: 2
